Experimental data reported in US7138248B2, “Method of inhibiting inward rectifier, G-protein activated, mammalian, potassium channels and uses thereof” (California Institute of Technology, priority 1993, dated 2006).
Entries after “also recorded” stand apart in the source; their conditions may differ.

What was measured:
[1] = target: Kir3.1 (Kir3.1/KGA), inward rectifier G-protein activated potassium channel polypeptide cloned from cardiac atrium (rat) (UniProt P63251); assay: cell-based or functional assay
[2] = target: T1, atrial inward rectifier K+ (KG) channel (Rattus norvegicus, UniProt P48548+P63251); assay: Two-electrode voltage clamp of the transmitter-evoked inward current (I5HT) in oocytes injected with atrial RNA + 5HT1A-R RNA; assay type: cell-based
T1 construct: is expressed in oocytes injected with atrial RNA; expressed in transfected cells; host or cells: Xenopus laevis oocytes injected with rat atrial total or poly(A) RNA plus 5HT1A receptor cRNA
T1 sequence (P63251 1-501): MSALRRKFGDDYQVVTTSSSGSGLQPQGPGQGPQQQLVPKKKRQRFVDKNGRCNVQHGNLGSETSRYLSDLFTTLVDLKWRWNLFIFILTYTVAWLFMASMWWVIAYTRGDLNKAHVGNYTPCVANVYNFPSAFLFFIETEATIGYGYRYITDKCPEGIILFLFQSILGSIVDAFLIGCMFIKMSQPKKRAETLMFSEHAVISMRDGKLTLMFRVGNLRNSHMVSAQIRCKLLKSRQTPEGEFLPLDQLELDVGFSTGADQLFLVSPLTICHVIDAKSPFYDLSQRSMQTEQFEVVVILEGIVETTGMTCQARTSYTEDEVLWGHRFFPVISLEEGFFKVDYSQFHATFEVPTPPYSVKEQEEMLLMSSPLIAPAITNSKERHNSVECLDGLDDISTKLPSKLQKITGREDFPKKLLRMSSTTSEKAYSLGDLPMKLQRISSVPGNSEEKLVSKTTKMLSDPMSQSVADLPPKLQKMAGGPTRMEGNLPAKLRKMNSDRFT
T1 sequence (P48548 1-419): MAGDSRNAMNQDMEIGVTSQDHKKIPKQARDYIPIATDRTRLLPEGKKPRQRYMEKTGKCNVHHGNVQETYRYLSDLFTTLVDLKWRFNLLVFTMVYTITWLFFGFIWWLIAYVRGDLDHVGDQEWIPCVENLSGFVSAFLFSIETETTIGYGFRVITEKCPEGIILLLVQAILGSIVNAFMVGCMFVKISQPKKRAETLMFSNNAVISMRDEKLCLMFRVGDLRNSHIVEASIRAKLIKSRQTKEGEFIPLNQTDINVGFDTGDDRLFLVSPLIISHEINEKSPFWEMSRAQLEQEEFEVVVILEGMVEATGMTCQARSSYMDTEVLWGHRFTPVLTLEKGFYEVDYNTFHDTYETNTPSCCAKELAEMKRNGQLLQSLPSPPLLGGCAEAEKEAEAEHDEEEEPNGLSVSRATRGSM
Experimental: Solutions containing intermediate concentrations of K^+ were made by substituting K^+ for Na^+. Solution exchange and drug application were done by superfusing the cell placed in a 0.5 ml chamber. […] Stimulation, data acquisition, and analysis were performed using pCLAMP software (Axon Instruments, Foster City, Calif.).

[3] = tested on: constitutively active inward rectifier K+ channel(s) (IhK); assay: Two-electrode voltage clamp of the high-K+-evoked inward current (IhK) in oocytes; assay type: cell-based, Xenopus laevis
Experimental: (§1) Preparation of RNA and oocytes. Total RNA was extracted from atria and ventricles of 19–21 day old rats of both sexes using the procedure of Chomczinski and Sacchi (1987) Anal. Biochem. 162:156–159. Poly (A) RNA was separated on an oligo-dT cellulose column (type 3, Collaborative Biochemical Products). Ventricle poly(A) RNA was fractionated by centrifugation (18 h, 30,000 g, 4° C.) on a linear 5%–25% sucrose gradient. Xenopus laevis oocytes were prepared as previously described (Dascal & Lotan (1992) in Methods in Molecular Biology, v. 13: Protocols in Molecular Neurobiology, eds. Longstaff & Revest). and injected with either 50–120 ng/oocyte poly(A) RNA, 120–200 ng/oocyte total RNA, or 35 ng/oocyte fractionated poly(A) RNA. In most cases, 5HT1A-R RNA (5–20 ng/oocyte) was co-injected with atrial or ventricle RNA. Final volume of the injected RNA solution was 50 nl. The oocytes were incubated for 3–7 days in the NDE solution (ND96 (see below) containing 1.8 Mm CaCl2 and supplemented with 2.5 Mm Na-pyruvate and 50 μg/ml gentamicin). Occasionally, either 2.5–5% heat-inactivated horse serum or 0.5 mM theophylline were added to the NDE solution. Incubation of oocytes in pertussis toxin (PTX; List Biochemicals) was done in NDE solution without the addition of pyruvate, serum or theophylline. cDNAs of 5HT1A receptor (Karschin et al. (1991) P.N.A.S. 88:5694–5698) and Gi2a (a gift from M. I. Simon, Caltech) in pBluescript were linearized, and RNA was synthesized in vitro as described (Dascal and Lotan, supra.).
Electrophysiological recordings were performed using the two electrode voltage clamp method with the Dagan 8500 amplifier (Dagan Instruments, Minneapolis) as described (Dascal et al. (1986) Mol. Brain Res. 1:201–209). The oocytes were usually kept in the ND96 solution: 96 mM NaCl/2 mM KC1/1 mM MgCl2/1 mM CaCl2/5 mM Hepes, pH=7.5. Most measurements were done in the high K^+ solution (hK): 96 mM KCl/2 mM NaCl/1 mM MgCl2/1 mM CaCl2/5 mM Hepes, pH=7.5. Solutions containing intermediate concentrations of K^+ were made by substituting K^+ for Na^+. Solution exchange and drug application were done by superfusing the cell placed in a 0.5 ml chamber. GDP-β-S (trilithium salt; Sigma) was injected by pressure (Dascal et al. supra.). Stimulation, data acquisition, and analysis were performed using pCLAMP software (Axon Instruments, Foster City, Calif.).

[4] = target: serotonin 5HT1A receptor (5HT1A-R); assay: cell-based or functional assay
Xenopus laevis oocytes = assay: Membrane (resting) current of oocytes in normal ND96 solution, two-electrode voltage clamp; assay type: cell-based
Experimental: as §1, with “Incubation of oocytes in pertussis toxin (PTX; List Biochemicals) was done in NDE solution without the addition of pyruvate, serum or theophylline. cDNAs of 5HT1A receptor (Karschin et al. (1991) P.N.A.S. 88:5694–5698) and Gi2a (a gift from M. I. Simon, Caltech) in pBluescript were linearized, and RNA was synthesized in vitro as described (Dascal and Lotan, supra.).” left out

Kir3.1+2 = assay: ACh-induced inward current (m2R activation) in oocytes coinjected with Kir3.1 and Kir3.2 cRNAs; assay type: cell-based, rat Kir3.1, mouse Kir3.2; settings: 1 μM ACh, 0.5 ng each cRNA per oocyte, mean±SEM, n=5
Source text: (§2) Plasmids and DNAS. To isolate Kir3.2 and Kir3.3 from mouse brain RNA, oligonucleotides were designed that anneal to the first assigned methionine codon and the assigned stop codon of mouse Kir3.2 and Kir3.3 (Lesage et al (1994) FEBS Lett. 353:37–42). Kir3.0-specific sequences were coupled to a 5′-end untranslated sequence from alfalfa mosaic virus (Jobling and Gehrke (1987) Nature 325:622–625) and a T7 RNA polymerase recognition site to confer an optimal translational initiation site and allow RNA synthesis […] (cRNA). At the 3′ end, a poly(A) tail was added to confer RNA stability. Total RNA from adult mouse brain (purchased from Clontech) was used as template for cDNA synthesis (Sambrook et al., supra.). PCR was conducted in a thermal cycler (Perkin-Elmer) by using Vent Polymerase (New England Biolabs), which minimizes misincorporations during the amplification step. Kir3.2 and Kir3.3 PCR-derived sequences were then inserted into the pNoTA vector (5 Prime→3 Primer, Inc.) for subsequent sequence analysis. […]
(§3) Electrophysiology. Whole-cell currents from oocytes were measured by using an Axoclamp 2A or Geneclamp 500 amplifier (Axon Instruments, Foster City, Calif.) in the two-electrode, voltage-clamp configuration. […]

Kir3.2 = assay: ACh-induced inward current (m2R activation) in oocytes injected with Kir3.2 cRNA; assay type: cell-based, mouse; settings: 1 μM ACh, 1 ng cRNA, n=7
Source text: as §2, §3

Kir3.1 = assay: ACh-induced inward current (m2R activation) in oocytes injected with Kir3.1 cRNA; assay type: cell-based, rat; settings: 1 μM ACh, 1 ng cRNA, n=5
Source text: as §2, §3

[5] = target: Kir3.2, isolated by PCR from mouse brain RNA (mouse) (UniProt P48542); assay: cell-based or functional assay
Kir3.2, isolated by PCR from mouse brain RNA (mouse), sequence (P48542 whole entry): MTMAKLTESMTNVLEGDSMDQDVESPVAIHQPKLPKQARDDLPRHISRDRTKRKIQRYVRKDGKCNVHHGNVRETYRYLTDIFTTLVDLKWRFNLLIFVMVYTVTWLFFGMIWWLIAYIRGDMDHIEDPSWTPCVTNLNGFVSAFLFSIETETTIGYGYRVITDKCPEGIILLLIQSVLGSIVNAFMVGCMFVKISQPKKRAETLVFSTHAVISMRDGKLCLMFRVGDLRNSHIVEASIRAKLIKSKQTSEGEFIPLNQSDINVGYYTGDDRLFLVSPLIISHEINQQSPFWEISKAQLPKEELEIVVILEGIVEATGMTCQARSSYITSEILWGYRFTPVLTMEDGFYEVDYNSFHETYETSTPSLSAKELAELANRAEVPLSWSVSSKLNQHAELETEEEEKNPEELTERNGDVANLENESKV

[6] = 400–800 pmole/oocyte injected, 4 cells
[7] = RNA-injected oocytes without Gi2α RNA, 500 ng/ml, 20–26 h

Experimental for native oocytes: Electrophysiological recordings were performed using the two electrode voltage clamp method with the Dagan 8500 amplifier (Dagan Instruments, Minneapolis) as described (Dascal et al. (1986) Mol. Brain Res. 1:201–209). […]

Compound “Kir3.2, isolated by PCR from mouse brain RNA (from UniProt P48542 1-425)” has a fold increase of IK of Kir3.1+2 over Kir3.1 alone (with Gβ1γ2) [1] of 40 fold, a fold increase of IK of Kir3.1+2 over Kir3.2 alone (with Gβ1γ2) [1] of 14 fold and a fold increase of the ACh-induced current of Kir3.1+2 over Kir3.1 alone [1] of 17 fold. The fold increase of the ACh-induced current of Kir3.1+2 over Kir3.2 alone [1] was 9 fold, the fold increase of the major open-time component of Kir3.1+2 against Kir3.2 alone [1] was 7 fold and the inward K+ current (IK) in high-K+ solution, Kir3.1+2 coexpressed with Gβ1γ2 [1] was -4.3 µA. For the same compound, the inward currents induced by ACh (IK,ACh), Kir3.1+2 coexpressed with m2R, 1 µM ACh [1] was -6.4 µA, the major component of single-channel open-time duration, Kir3.1+2 [1] was 3.5 ms and the time constant of the slower activation component at -80 mV, Kir3.1+2 coexpressed [1] was 213 ms.
For `Nc1nc2c(ncn2[C@@H]2O[C@H](COP(=O)(O)OP(O)(O)=S)[C@@H](O)[C@H]2O)c(=O)[nH]1` [GDP-β-S], the “I5HT after injection, % of control” value [2, 6] was 4±1 % of control and the “IhK after injection, % of control” value [3, 6] was 115±8 % of control.
“Gi2α, PTX-sensitive α subunit of a G-protein” showed a PTX inhibition of I5HT in oocytes injected with atrial RNA plus cRNAs encoding 5HT1A-R and Gi2α [4] of 50%.
`[Ba+2]` [Ba^2+] was tested, and the “change in resting current or conductance in normal ND96” value (Xenopus laevis oocytes; 5 μM-3 mM, native or RNA-injected oocytes, holding potential -80 mV) was “did not cause any significant changes”, the “block of I5HT” value ([2]; 300 μM, hK solution, FIG. 3B) was “almost completely blocks; also recorded: almost completely abolished” and the IC50 ([2]; hK solution, -80 mV, FIG. 3D, read-out: IC50 (half-inhibition concentration) for block of I5HT) was ~15 µM. For the same compound, the “block of IhK” value ([3]; 300 μM, hK solution) was “about 20%” and the IC50 ([3]; hK solution, -80 mV, FIG. 3D, read-out: IC50 for IhK block) was > 3000 µM.
In the case of `NCCc1c[nH]c2ccc(O)cc12` [5HT, serotonin], the “change in membrane current in ND96 bath solution” value (Xenopus laevis oocytes; RNA-injected oocytes, 4 to 5 days after injection, 10 μM ACh or 1–2 μM 5HT) is reported as “did not cause any significant change”, the EC50 [2] is reported as ~0.015 µM and the “inward current induced by the transmitter in hK solution” value ([2]; RNA-injected oocytes of one frog, n=6) is reported as 1102±84 nA. The “saturation of the I5HT dose-response curve” value ([2]; hK solution, FIG. 1C) was “about 100 nM”, the “I5HT, inward current evoked by 5HT” value ([2]; oocytes injected with Atrial + 5HT1A-R RNA, -80 mV, hK solution, 5HT 100 nM to 2 μM, mean±SEM (n)) was 290 ± 43 (55) nA and the “effect of 5HT on current” value (native oocytes) was “no effect”.
With pertussis toxin [PTX] the “effect of treatment on I5HT” value [2, 7] was “not affected”, the “inhibition of I5HT” value ([2]; oocytes injected with atrial RNA plus cRNAs encoding 5HT1A-R and Gi2α, P<0.01) was “about 50%” and the “effect of treatment on IhK” value [3, 7] was “not affected”. The “effect on IhK” value ([3]; oocytes injected with atrial RNA plus cRNAs encoding 5HT1A-R and Gi2α) was “unaffected”.
In the case of `CC(=O)OCC[N+](C)(C)C` [ACh, acetylcholine], the “inward currents induced by ACh (IK,ACh)” value (Kir3.1+2) is reported as −6.4±0.8 μA, the “inward currents induced by ACh (IK,ACh)” value (Kir3.2) is reported as −698±98 nA and the “inward currents induced by ACh (IK,ACh)” value (Kir3.1) is reported as −365±45 nA.
For G protein subunits Gβ1 and Gγ2 (Gβ1γ2), the inward K+ current (IK) in high-K+ solution, Kir3.1 alone with Gβ1γ2 [1] was -104 nA, the inward K+ current (IK), Kir3.1 alone (control of the Kir3.1+3 experiment) [1] was -481 nA and the Gβγ-induced, inwardly rectifying currents in oocytes injected with Kir3.2 cRNA alone (1 ng per oocyte) [5] was -5.1 µA. The inward K+ current (IK) in high-K+ solution, Kir3.2 alone with Gβ1γ2 [5] was -305 nA.
“Kir3.3, isolated by PCR from mouse brain RNA (from UniProt P48543 1-393)” gave a fold increase of IK of Kir3.1+3 over Kir3.1 alone [1] of 7 fold, an inward K+ current (IK), Kir3.1 and Kir3.3 coexpressed (Kir3.1+3) [1] of -3.4 µA and a Gβγ-induced, inwardly rectifying currents in oocytes coinjected with Kir3.2 and Kir3.3 cRNAs (0.5 ng each per oocyte) [5] of -129 nA.
